In paper PMC8939299, “Molecular characterization of a novel GSTO2 of Fasciola hepatica and its roles in modulating murine macrophages” (Parasite, 2022):

System: O=C1O[C@H]([C@@H](O)CO)C(=O)C1=O
Assay: purified protein
Settings: 1 mM GSH fixed, DHA 0-0.25 mM (Figure 3 legend: 0-2.5 mM), potassium phosphate, pH 7.5, 25 °C

Substance: rGSTO2 (Fasciola hepatica)
- Km: 287 µM
